Experimental data as given in patent publication US20090075904A1 (CAMPINA NEDERLAND HOLDING B V, published 2009).

What follows are binders tested against T1, Dipeptidyl peptidase IV (DPP-IV) (UniProt P22411 38-766, limits assumed) (assay: cell-based or functional assay).
T1 sequence (P22411 38-766 limits assumed): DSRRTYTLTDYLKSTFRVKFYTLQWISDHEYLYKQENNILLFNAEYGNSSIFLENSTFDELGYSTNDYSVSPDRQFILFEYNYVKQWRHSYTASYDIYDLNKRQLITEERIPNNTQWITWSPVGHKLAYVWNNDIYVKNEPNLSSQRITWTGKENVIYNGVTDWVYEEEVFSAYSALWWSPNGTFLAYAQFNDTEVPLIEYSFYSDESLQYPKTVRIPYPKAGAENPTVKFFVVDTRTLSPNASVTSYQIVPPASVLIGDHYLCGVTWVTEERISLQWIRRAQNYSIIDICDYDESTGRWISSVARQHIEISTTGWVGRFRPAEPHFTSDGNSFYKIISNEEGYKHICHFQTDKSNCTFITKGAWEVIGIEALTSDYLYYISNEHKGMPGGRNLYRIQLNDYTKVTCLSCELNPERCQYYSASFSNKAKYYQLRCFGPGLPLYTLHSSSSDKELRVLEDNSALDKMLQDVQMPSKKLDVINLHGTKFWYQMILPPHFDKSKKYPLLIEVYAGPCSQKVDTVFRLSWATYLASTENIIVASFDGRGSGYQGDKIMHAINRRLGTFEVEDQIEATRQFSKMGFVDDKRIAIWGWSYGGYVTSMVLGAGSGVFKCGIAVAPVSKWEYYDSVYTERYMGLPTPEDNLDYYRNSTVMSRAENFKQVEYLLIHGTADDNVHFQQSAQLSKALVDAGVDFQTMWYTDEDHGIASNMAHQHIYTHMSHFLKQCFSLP

| IC50 of DPP-IV inhibition (estimated from relative potency) [µM] | Binder |
| --- | --- |
| ~5 | IPI |
| ~120 | HPIK |
| ~120 | APFPEVF |
| ~5 | LPL |

Target: T1, Dipeptidyl peptidase IV (DPP-IV)
Assay: cell-based or functional assay
Remark: another data set of the same source

| Binder | RELATIVE POTENCY [%] (DPP-IV inhibition assay, Gly-Pro-p-nitroanilide conversion, on-line LC-BCD-MS) |
| --- | --- |
| EMPFPK | 12 |
| GPFPIIV | 9 |
| IPI | 100 |
| APFPE | 9 |
| HPIK | 6 |
| KVLP | 98 |
| APFPEVF | 6 |
| LPL | 100 |
| GPFP | 34 |

Results, then the binder that gave them:

| RELATIVE POTENCY [%] (DPP-IV inhibition assay, Gly-Pro-p-nitroanilide conversion, on-line LC-BCD-MS) | Binder |
| --- | --- |
| 37 | PLLQ |
| 55 | VPLGTQ |
| 11 | LPLP |
| 51 | VPYPQ |
| 23 | MPLW |
| 15 | LPVP |
| 20 | YVPEPF |
| 28 | LPVPQ |
| 20 | PFP |
| 63 | LPVPQK |
| 26 | LPQYL |
| 20 | PQSVLS |
